Source: publication PMC3966550

Target: CXCR2-4A/IL (S342A/S346A/S347A/S348A and I323A/L324A) (human)
Assay: co-IP

Sequence of β-arrestin1 (P49407 whole entry): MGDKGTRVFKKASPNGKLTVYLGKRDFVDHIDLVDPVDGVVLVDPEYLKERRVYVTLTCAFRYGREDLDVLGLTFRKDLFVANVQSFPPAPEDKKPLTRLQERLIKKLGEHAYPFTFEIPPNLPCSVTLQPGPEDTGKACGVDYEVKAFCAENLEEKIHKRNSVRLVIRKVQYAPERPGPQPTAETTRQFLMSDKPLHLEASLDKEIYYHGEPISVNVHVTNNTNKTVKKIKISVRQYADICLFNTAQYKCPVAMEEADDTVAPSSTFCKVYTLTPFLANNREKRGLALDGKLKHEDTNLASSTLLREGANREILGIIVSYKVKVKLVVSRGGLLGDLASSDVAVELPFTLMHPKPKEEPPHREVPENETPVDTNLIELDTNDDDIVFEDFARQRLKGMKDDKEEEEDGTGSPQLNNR

Substance: β-arrestin1 (from UniProt P49407 1-418) (natural protein)
- reduction of binding (co-precipitated β-arrestin1): 90%
